Laboratory results reported in publication PMC7762956 (The Journal of Biological Chemistry, 2020).

Biological target: the molecule itself
Assay: SEC

| Protein | stoichiometry N |
| --- | --- |
| murine Ifit1b with a C-terminal His8 tag (natural protein) MEQLLSPSNMSEESHKSHIHDSLDELRCHFTWELDIKDKHIHDLEIKISETEFRDPIYSIGMHNLLAYVRHLKGQQDEALQSLKEAEALIQSEQLSKRSLATWGNCAWLHYHRGSLAEAQVYLDKVEKVCKEFSSPFRYRLECAEMDCEEGWALRKCGSQNYTRAMACFERALKVEPENPEYNAGYADVAYHLDYYDGNSLQPLKKAVSVKPEDPYLKVLLALKLQDLRKTDEAEKHIKEATLTISSQNNIFGYVAKFYRRKGCVEEALGFLKKALETKPSSPYLHFQIGLCHKTQFFQMKKATSRENRKRADQSCHLAICHFKKTLELKPTYDRAYIDLAEVYAKNHQQKEAEDNFQEVLSMSNLGDYMQQEIHFRYGNFQQYYKKSEEAAITHYLKGLKIEVTSHYRDKLLKALEELAEGRKEDHVLESLSLLGLVCRLRGDTSEAMSCYEKALRLTGAVNPEF | 2 |
| murine Ifit1 with a C-terminal His8 tag (natural protein) MGENADGDQVMENLLQLRCHFTWKLLFENNDIPDLEVRISEQVQFLDIKNPLGMHNLLAYVRHLKGQQDEALQSLKEAEALIQSEQLSKRSLATWGNCAWLHYHRGSLAEAQIYLDKVEKVCKEFSSPFRYRLECAEMDCEEGWALLKCGGGNYKQAMACFAKALKVEPENPEYNTGYAVVAYRQDLDDNFISLEPLRKAVRLNPEDPYLKVLLALKLQDLGEHVEAEAHIEEALSSTSCQSYVIRYAAKYFRRKHRVDKALHLLNRALQASPSSGYLHYQKGLCYKQQISQLRTSRNRQPRRQDNVQELAQQAIHEFQETLKLRPTFEMAYVCMAEVQAEIHQYEEAERNFQKALNNKTLVAHIEQDIHLRYGRFLQFHKQSEDKAITLYLKGLKVEEKSFAWRKLLTALEKVAERRVCQNVHLVESTSLLGLVYKLKGQEKNALFYYEKALRLTGEMNPAF | 2 |
